Molecular target: T1, Flag-tagged mouse v-ATPase a4 subunit fragment (amino acids 1-388) (mouse, UniProt Q920R6 1-388)
T1 construct: range 1-388; Expressed in 293FT cells from pCMX-Flag/v-ATPase-a4 and used as cell lysate; also called Flag-tagged a4; not shown: Flag tag of vector pCMX-Flag
Assay: GST pull-down from 293FT lysate, anti-Flag Western blot
Description: ID. NO. 89 (d2) (SEQ ID NO.:154) was cloned into the prokaryotic expression vector, pGEX-2T (Pharmacia, GE Healthcare), expressed as a GST fusion protein in E. coli and purified with glutathione beads. In parallel, cDNA fragments of mouse v-ATPase-a3 (amino acids 1-385) and v-ATPase a4 (amino acids 1-388) were cloned into the eukaryotic expression vector, pCMX-Flag in order to express a Flag-tagged a3 subunit or a4 subunit in mammalian cells. The pCMX-Flag/v-ATPase-a3 and pCMX-Flag/v-ATPase-a4 recombinant plasmids were transfected in 293FT cells and cell lysates were generated in which, the v-ATPase-a3 and v-ATPase-a4 FLAG-tagged polypeptides were readily detected with an anti-Flag antibody (FIG. 21B, II, upper panel).
In order to measure the interaction between d2 (SEQ. ID. NO. 89) and a3 or a4, equal amounts of 293FT lysates containing either Flag-tagged a3 or a4 were incubated with purified GST or GST-d2 at 4° C. for 90 minutes under mild agitation. After washing, the protein mixes were separated on a SDS-PAGE and transferred to PVDF membrane. […] Clearly, only the a3 fragment could be detected in the GST-d2 reactions compared to the GST reactions indicating a specific interaction between d2 and a3 (FIG. 21B, I-a3, upper panel) but not between d2 and a4 (FIG. 21B, I-a4, upper panel). […]

T1 sequence (Q920R6 1-388): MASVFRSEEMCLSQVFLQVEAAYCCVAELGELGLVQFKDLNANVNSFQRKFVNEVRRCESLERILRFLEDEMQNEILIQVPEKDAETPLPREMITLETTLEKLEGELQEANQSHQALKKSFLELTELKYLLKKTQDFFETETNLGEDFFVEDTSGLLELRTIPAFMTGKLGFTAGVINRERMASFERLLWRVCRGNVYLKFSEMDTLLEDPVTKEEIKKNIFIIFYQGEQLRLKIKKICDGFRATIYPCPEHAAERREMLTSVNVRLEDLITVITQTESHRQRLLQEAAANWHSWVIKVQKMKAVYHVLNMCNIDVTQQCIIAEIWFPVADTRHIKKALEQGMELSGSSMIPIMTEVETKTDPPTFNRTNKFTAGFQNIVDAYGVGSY

B1: GST-d2 (GST fusion protein of the human v-ATPase d2 subunit, polypeptide SEQ ID NO.:154 encoded by SEQ. ID. NO. 89) (other)
chain: not shown
notes: also called AB0179 human orthologue; not shown: glutathione S-transferase (GST) tag of the prokaryotic expression vector pGEX-2T (Pharmacia, GE Healthcare)
- binding result: no binding

Reference: US20090004206A1 (ALETHIA BIOTHERAPEUTICS, published 2009)
